Values joined by “and” are separate entries in the source; they are usually repeats but may differ in a detail not shown here. Equal values may be shown once.
T1: human CD112R antigen protein huCD112R-His (Acro Biosysterm, PVG-H52H4) (human, UniProt Q6DKI7 41-171)
T1 construct: purchased; also called human antigen protein; not shown: His tag
T1 sequence (looked up): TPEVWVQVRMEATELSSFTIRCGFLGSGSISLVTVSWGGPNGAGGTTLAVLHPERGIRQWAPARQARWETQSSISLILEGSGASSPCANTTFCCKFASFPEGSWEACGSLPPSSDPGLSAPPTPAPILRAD

T2: monkey antigen protein (monkey CD112R, Uniprot ID: A0A2K5WVV8) (monkey, UniProt A0A2K5WVV8 41-171)
T2 sequence: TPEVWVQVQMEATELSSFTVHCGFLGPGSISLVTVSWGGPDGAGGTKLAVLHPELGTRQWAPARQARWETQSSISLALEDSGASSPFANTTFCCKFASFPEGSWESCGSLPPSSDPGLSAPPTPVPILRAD

T3: human CD112R on GS-J2C/CD112R effector cells (human, UniProt Q6DKI7 1-326)
T3 sequence (looked up): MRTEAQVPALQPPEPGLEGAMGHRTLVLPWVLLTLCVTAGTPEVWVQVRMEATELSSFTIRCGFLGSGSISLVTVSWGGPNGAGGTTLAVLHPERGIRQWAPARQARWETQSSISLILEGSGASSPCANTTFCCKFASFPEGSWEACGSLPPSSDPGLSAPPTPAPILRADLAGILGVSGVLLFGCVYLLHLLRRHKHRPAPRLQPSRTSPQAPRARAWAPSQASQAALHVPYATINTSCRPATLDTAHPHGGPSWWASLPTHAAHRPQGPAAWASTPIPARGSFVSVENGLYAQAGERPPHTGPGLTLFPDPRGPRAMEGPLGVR

T4: human CD112R on antigen-specific CD8+ T cells (human, UniProt Q6DKI7 1-326)
T4 sequence (looked up): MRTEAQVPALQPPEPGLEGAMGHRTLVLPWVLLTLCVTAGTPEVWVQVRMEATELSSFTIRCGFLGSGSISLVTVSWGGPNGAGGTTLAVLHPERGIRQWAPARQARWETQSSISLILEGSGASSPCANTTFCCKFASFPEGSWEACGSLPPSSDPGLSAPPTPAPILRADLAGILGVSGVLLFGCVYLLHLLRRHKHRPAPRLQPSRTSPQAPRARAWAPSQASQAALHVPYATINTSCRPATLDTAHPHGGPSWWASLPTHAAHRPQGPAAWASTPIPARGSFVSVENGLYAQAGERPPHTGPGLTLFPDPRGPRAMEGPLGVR


Columns and labels:
[1] = target: T1, human CD112R antigen protein …; assay: SPR (Biacore X100), antibody captured on Protein A chip, huCD112R-His as analyte, 1:1 Langmuir
[2] = target: T1, human CD112R antigen protein …; assay: ELISA, huCD112R-His coated on plate
[3] = target: T2, monkey antigen protein (monkey CD112R, …); assay: ELISA, monkey antigen protein (as Example 6.1)
[4] = target: T3, human CD112R on GS-J2C/CD112R effector …; assay: cell-based or functional assay
[5] = target: T4, human CD112R on antigen-specific CD8+ T …; assay: cell-based or functional assay

Binder | Kd [1] | EC50 [2] [nM] | EC50 [3] [nM] | EC50 (Blocking effects of the antibodies, reporter gene method) [4] [µg/mL] | IFN-γ(pg/ml) at 0.5µg/ml antibody [5] [pg/mL] | IFN-γ(pg/ml) at 5µg/ml antibody [5] [pg/mL] | IFN-γ(pg/ml) at 50µg/ml antibody [5] [pg/mL]
C13 (antibody, human IgG1, kappa, V domains shown) VH: EVQLQQSGPELVKPGASVKISCKASGYTFTDYFMNWVKQSHGKSLEWIGDINPNNGSPNYNQKFKGRATLTVDKSSSTAYMELRSLTSEDSAVYYCASGYFDVWGTGTTVTVSS VL: DIVMTQSPSSLSVSAGEKVTMSCKSSQSLLNSGTQKNYLAWYQQKPGQPPKLLIYGASTRESGVPDRFTGSGSGTDFTLTISSVQAEDLAVYYCQNDHSYPWTFGGGTKLEIKR | 0.0218 nM | 0.065 | 0.059 | 0.019 | 624 | 658 | 767
C4 (antibody, human IgG1, kappa, V domains shown) VH: EVQLQQSGPELVKPGASVKISCKASGYTFTDYFMNWVKQSHGKSLEWIGDIIPNNDSPNYNQKFKGKATLTVDKSSNTAYMELRSLTSEDSAVYYCASGYFDVWGTGTTVTVSS VL: DIVMTQSPSSLSVSAGEKVTMSCKSSQSLLNSGNQKNFLAWYQQKPGQPPKLLIYGTSTRESGVPDRFTGSGSGTDFTLTISSVQAEDLAVYYCQNDHSYPWTFGGGTKLEIKR | 0.0141 nM | 0.032 | 0.059 | 0.024 | 663 | 740 | 875
C11 (antibody, human IgG1, kappa, V domains shown) VH: EVQLQQSGPELVKPGASVKISCKASGYTFTDYFMNWVRQSHGKSLEWIGDIHPNNGSPNYNQKFKGKATLTVGKSSSTAYMELRSLTSEDSAVYYCATGYFDVWGTGTTVTVSS VL: DIVMTQSPSSLSVSAGEKVTMSCKSSQSLLNSGNQKNYLAWYQQKPGQPPKLLIYGASTRESGVPDRFTGSGSGTDFTLTISSVQAEDLAVYYCQNDHSYPWTFGGGTKLEIKR | 0.0622 nM | 0.056 | 0.079 | 0.021 | 676 | 747 | 617
C1 (antibody, human IgG1, kappa, V domains shown) VH: QVHLQQSGPELVKPGASLKISCKASGYTFTDYYLNWVKQRPGQGLEWIGWIFPGSESTFYNEKFKGKATLTVDKSSSTAYMLLNSLTSEDSAVYFCTRDGGLRGPFDYWGQGTTLTVSS VL: DIQLTQSPSSLSASLGGKVTITCKASQDINKYIAWCQHKPGKGPRLLIHYTSTLHPGIPSRFSGSGSGRDYSFSISNLEPEDSATYYCLQYDYLLTFGGGTKLEIKR | 0.905 nM | 0.075 | 0.116 | 0.045 | 543 | 641 | 755
C12 (antibody, human IgG1, kappa, V domains shown) VH: EVQLVASGGGLVKPGGSLKLSCAASGFTFSDYYMYWVRQTPEKRLEWVATISDGGGYTYYPDSVKGRFTISRDNDRNSLYLQMSSLKSEDTAMYYCGREDLWGQGTSVTVSS VL: DIQMTQSPSSLSASLGERVSLTCRASQDIGSSLNWLQQEPDGTVKRLIYATSRLDSGVPKRFSGSRSGSDYSLTISSLESEDFVDYYCLQYASFPYTFGGGTKLEIKR | 2.9 nM | 0.155 | 0.768 | 0.024 | 608 | 678 | 824
C8 (antibody, human IgG1, kappa, V domains shown) VH: EVQLVASGGGLVKPGGSLKLSCAASGFTFSDYYMFWVRQTPEKRLEWVATISDGGGYIYYPDSVKGRFTISRDNDRNSLYLQMSSLKSEDTAIYYCGREDFWGQGTSVTVSS VL: DIQMTQSPSSLSASLGERVSLTCRASQDIGRSLNWLQQEPDGSVRRLIYATSRLDSGVPKRFSGSRSGSDYSLTISSLESEDFVDYYCLQYASFPYTFGGGTKLEIKR | 0.397 nM | 0.046 | 0.047 | 0.026 | 722 | 783 | 819

Next, values leading:

Kd [1] | EC50 [2] [nM] | EC50 [3] [nM] | EC50 (Blocking effects of the antibodies, reporter gene method) [4] [µg/mL] | IFN-γ(pg/ml) at 0.5µg/ml antibody [5] [pg/mL] | IFN-γ(pg/ml) at 5µg/ml antibody [5] [pg/mL] | IFN-γ(pg/ml) at 50µg/ml antibody [5] [pg/mL] | Binder
0.704 nM and 0.571 nM | 0.032 | 0.043 | 0.032 |  |  |  | C62 (antibody, human IgG1, kappa, V domains shown) VH: EVMLVESGGGLVKPGGSLKLSCAASGFSFSSYSMSWVRQTPEKRLECVATIGGVGGNTYYPDSVKGRFSISRDNAKNTLYLQMSSLRSEDTALYYCARHEDYYYYAMDYWGQGTSVTVSS VL: QIVLTQSPAIMSASPGEKVTMTCSANSTVSYIYWYQQKPGSSPRLLIYDTSNLASGVPVRFSGSGSGTSYYLTISRMEAEDAATYYCQQWSSFPFTFGSGTKLEIKR
0.488 nM | 0.054 | 0.09 | 0.023 |  |  |  | C63 (antibody, human IgG1, kappa, V domains shown) VH: EVMLVESGGGLVKPGGSLKLSCAASGFIFSSYIMSWVRQTPEKRLEWVATIRGGGGNTYYLDSVKGRFIISRDNAKNNLYLQMSSLRSEDTALYYCARHEDYEWYAMDNWGQGTSVTVSS VL: QIVLTQSPAIMSASPGEKVTLTCSARSSVSYMYWYQQKPGSSPKLLIYDTSNLASGVPVRFSGSGSGTSYSLTISRMEAEDAATYYCQQWSSYPLTFGAGTKLELKR
0.0687 nM | 0.052 | 0.067 | 0.052 | 619 | 674 | 759 | C14 (antibody, human IgG1, kappa, V domains shown) VH: QVQLQQPGAELVRPGTSVKLSCKASGNTFTSYWMHWVKQRPGQGHEWIGVIDASDSNTKYNQKFKGKATLTVDTSSSTAYMQLSSLTSEDSAVYYCARYYSGSSYGLDYWGQGTTLTVSS VL: DIQMTQTASSLSASLGDRVTISCRASQDISNYLNWYQQKPDGTVKLLIYYTSRLHSGVPSRFSGSGSGTDFSLTITHLEQEDIASYFCQQGNMFPPTFGGGTKLEIKR
0.346 nM | 0.034 |  | 0.065 | 696 | 718 | 763 | anti-CD112R antibody CHA.7.518 (antibody, V domains shown, synthesised according to WO/2016/134333; also called Tab-1; Tab 1) VH: QVQLVQSGAEVKKPGASVKVSCKASGYTFTDYNINWVRQAPGQGLEWMGYIYPYIGGSGYAQKFQGRVTMTRDTSTSTVYMELSSLRSEDTAVYYCAREDKTARNAMDYWGQGTLVTVSS VL: DIQMTQSPSSLSASVGDRVTITCRVSENIYSNLAWYQQKPGKAPKLLIYEATNLAEGVPSRFSGSGSGTDFTLTISSLQPEDFATYYCQHFWGTPYTFGQGTKLEIKR
0.206 nM | 0.069 | 0.069 | 0.034 | 748 | 802 |  | C18 (antibody, human IgG1, kappa, V domains shown) VH: EVQLVESGGGLVKPGGSLKLSCAASGFTFSDYYMYWVRQTPEKRLEWVATISDGGGFIYYPDSVKGRFTISRDNDRNSLYLLMSSLKSEDTAMYFCGREDLWGQGTSVTVSS VL: DIQMTQSPSSLSASLGERVSLTCRASQDIGRSLNWLQQGPDGTVKRLIYATSRLDSGVPTRFSGSRSGSDYSLTISSLESEDFVDYYCLQYASFPYTFGGGTKLEIKR
0.114 nM | 2.27 | 8.36 | 0.025 | 708 | 835 |  | C20 (antibody, human IgG1, kappa, V domains shown) VH: EVQLVESGGGLVKPGGSLKLSCAASGFTFSDSYMCWVRQTPEKRLEWVATISDAGGYTYYPDSVKGRFTISRDNDRNNLYLQMSGLKSEDTAVYYCGREDLWGQGTSVTVSS VL: DIQMTQSPSSLSASLGERVSLTCRASQDIGRSLNWLQQEPDGTIKRLIYATSRLDSGVPKRFSGSRSGSDYSLTISSLESEDFVDYYCLQYASSPYTFGGGTKLEIKR
0.567 nM | 0.043 | 0.034 | 0.033 | 571 | 744 | 829 | C19 (antibody, human IgG1, kappa, V domains shown) VH: EVQLVESGGGLVKPGGSLKLSCAASGFTFSDYYMYWVRQTPEKRLEWVATISDAGGYTYYPDSVKGRFTISRDNARNSLYLQMSSLKSEDTAMYFCGREDLWGQGTSVTVSS VL: DIQMTQSPSSLSASLGERVSLTCRASQDIGYSLNWLQQEPDGSVRRLIYATSRLDSGVPKRFSGSRSGSDYSLTISSLESEDFVDYYCLQYASFPYTFGGGTKLEIKR
